Patent US20250145723A1 (MINGHUI PHARMACEUTICAL HANGZHOU, published 2025)
Where a chain is given by its changes, count along the chain named.

B1: 5115-H4-M34-Fc (Fc fusion)
chain: EVQLVESGGGLVQPGGSLRLSCAASGRTFSSFVMAWFRQAPGKGLEFVSAISGSGSRARYADSVKGRFTISRDNSKNTLYLQMNSLRAEDTAVYYCAANPRRATPDLTQYAYWGQGTLVTVSS
notes: VHH-Fc; Fc not specified; not shown: Fc
B2: 5115-H1-Fc (Fc fusion)
chain: B1 chain with A35S, G44E, L45R, R59Y, L107Y
notes: Humanized VHH-Fc; Fc not specified; not shown: Fc
B3: 5115-H6-Fc (Fc fusion)
chain: B1 chain with A35M, G44E, L45R, R59Y, L107Y
notes: as for B2
B4: 5115-H2-Fc (Fc fusion)
chain: B1 chain with A35S, L45R, R59Y, L107Y
notes: as for B2
B5: 5115-H4-Fc (Fc fusion)
chain: B1 chain with A35S, R59Y, L107Y
notes: as for B2
B6: 5115-H3-Fc (Fc fusion)
chain: B1 chain with A35S, G44E, R59Y, L107Y
notes: as for B2
B7: 5115-H4-M3-Fc (Fc fusion)
chain: B1 chain with L107Y
notes: as for B1
B8: 5115-H1-M3-Fc (Fc fusion)
chain: B1 chain with A35S, G44E, L45R
notes: as for B1
B9: 5115-H1-M40-Fc (Fc fusion)
chain: B1 chain with A35S, G44E, L45R, A58Q, T108R
notes: as for B1
B10: 5115-H4-M39-Fc (Fc fusion)
chain: B1 chain with A35S, A58S, T108R
notes: as for B1
B11: 5115-H4-M34-16-Fc (Fc fusion)
chain: B1 chain with A35G, S54F
notes: as for B1
B12: 5115-H4-M34-15-Fc (Fc fusion)
chain: B1 chain with F32L
notes: as for B1
B13: 5115-H1-M10-Fc (Fc fusion)
chain: B1 chain with R27G, A35S, G44E, L45R, R59Y, D106G, L107F
notes: as for B1
B14: 5115-H1-M17-Fc (Fc fusion)
chain: B1 chain with A35S, G44E, L45R, A58S, T108I
notes: as for B1
B15: 5115-H4-M34-14-Fc (Fc fusion)
chain: B1 chain with G26R, R27G, S56K, R57V
notes: as for B1
B16: 5115-H4-M34-7-Fc (Fc fusion)
chain: B1 chain with S56R, R57Q, T108S, Q109R
notes: as for B1
B17: 5115-H4-M48-Fc (Fc fusion)
chain: B1 chain with G16D, S31R, A35S, R59Y, T108R
notes: as for B1
B18: 5115-H4-M34-8-Fc (Fc fusion)
chain: B1 chain with S31T, A58S
notes: as for B1
B19: 5115-H1-M36-Fc (Fc fusion)
chain: B1 chain with S30P, A35S, G44E, L45R, R59Y, T108R
notes: as for B1
B20: 5115-H4-M41-Fc (Fc fusion)
chain: B1 chain with A35G, L107Y, A111L
notes: as for B1
B21: 5115-H4-M34-3-Fc (Fc fusion)
chain: B1 chain with R27G, A111K
notes: as for B1
B22: 5115-H4-M34-11-Fc (Fc fusion)
chain: B1 chain with G26T
notes: as for B1
B23: 5115-H4-M34-1-Fc (Fc fusion)
chain: B1 chain with S30N, S31R, S56Q
notes: as for B1
B24: 5115-H4-M34-9-Fc (Fc fusion)
chain: B1 chain with R27P, T28A
notes: as for B1
B25: 5115-H4-M34-5-Fc (Fc fusion)
chain: B1 chain with G26M, R27T, S54H
notes: as for B1
B26: 5115-H1-M39-Fc (Fc fusion)
chain: B1 chain with A35S, G44E, L45R, A58F, T108Q
notes: as for B1
B27: 5115-H4-M34-12-Fc (Fc fusion)
chain: B1 chain with T28P, R102Y
notes: as for B1
B28: 5115-H1-M35-Fc (Fc fusion)
chain: B1 chain with A35S, G44E, L45R, R59L, T108R
notes: as for B1
B29: 5115-H4-M34-4-Fc (Fc fusion)
chain: B1 chain with R27G, S54F
notes: as for B1
B30: 5115-H4-M28-Fc (Fc fusion)
chain: B1 chain with A35S, S54G, R59Y, T69A, T108R
notes: as for B1
B31: 5115-H4-M52-Fc (Fc fusion)
chain: B1 chain with G26S, A35S, R59N
notes: as for B1
B32: 5115-H4-M25-Fc (Fc fusion)
chain: B1 chain with R27V, A35S, R59L
notes: as for B1

Molecular target: human IGF-1R on BaF3 cells overexpressing human IGF-1R (human) (UniProt P08069)
Experiment: cell-based or functional assay
Details: not given

Chain of human IGF-1R on BaF3 cells overexpressing human IGF-1R (human) (P08069 31-1367): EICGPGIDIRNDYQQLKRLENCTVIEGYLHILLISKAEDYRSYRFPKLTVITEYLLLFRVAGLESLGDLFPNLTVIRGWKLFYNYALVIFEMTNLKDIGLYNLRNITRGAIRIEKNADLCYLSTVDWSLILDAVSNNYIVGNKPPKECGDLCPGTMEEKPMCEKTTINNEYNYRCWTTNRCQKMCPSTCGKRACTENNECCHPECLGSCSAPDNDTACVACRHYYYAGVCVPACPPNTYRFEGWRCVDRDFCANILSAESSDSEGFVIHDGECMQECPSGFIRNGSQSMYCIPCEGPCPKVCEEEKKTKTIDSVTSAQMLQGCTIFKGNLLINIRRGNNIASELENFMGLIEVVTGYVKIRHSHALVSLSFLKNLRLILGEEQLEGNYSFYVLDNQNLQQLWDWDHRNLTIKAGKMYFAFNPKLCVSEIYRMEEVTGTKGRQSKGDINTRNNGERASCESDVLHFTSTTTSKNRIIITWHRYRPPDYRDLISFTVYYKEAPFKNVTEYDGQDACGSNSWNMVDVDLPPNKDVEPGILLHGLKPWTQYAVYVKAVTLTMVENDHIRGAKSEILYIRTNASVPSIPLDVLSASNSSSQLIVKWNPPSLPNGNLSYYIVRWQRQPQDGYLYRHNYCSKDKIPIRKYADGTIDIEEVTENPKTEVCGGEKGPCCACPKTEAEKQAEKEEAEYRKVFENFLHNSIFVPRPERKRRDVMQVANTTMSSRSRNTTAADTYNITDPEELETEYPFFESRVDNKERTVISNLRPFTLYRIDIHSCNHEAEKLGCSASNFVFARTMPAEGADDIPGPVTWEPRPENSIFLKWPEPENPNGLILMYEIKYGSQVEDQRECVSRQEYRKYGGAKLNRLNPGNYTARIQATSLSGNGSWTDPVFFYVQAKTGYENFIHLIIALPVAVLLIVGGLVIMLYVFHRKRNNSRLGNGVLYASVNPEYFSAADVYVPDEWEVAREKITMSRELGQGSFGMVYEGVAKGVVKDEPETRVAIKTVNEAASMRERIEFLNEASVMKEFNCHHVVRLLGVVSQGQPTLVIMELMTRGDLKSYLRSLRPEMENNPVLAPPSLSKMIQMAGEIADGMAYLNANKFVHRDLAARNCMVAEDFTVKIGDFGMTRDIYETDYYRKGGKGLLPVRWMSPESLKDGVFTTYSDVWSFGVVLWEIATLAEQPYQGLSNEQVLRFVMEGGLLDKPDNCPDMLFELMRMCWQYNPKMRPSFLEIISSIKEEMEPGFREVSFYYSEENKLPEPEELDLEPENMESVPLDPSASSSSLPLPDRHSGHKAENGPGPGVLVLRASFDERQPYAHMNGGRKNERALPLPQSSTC

Molecule | IC50, inhibition of IGF-1-induced proliferation of BaF3 cells overexpressing human IGF-1R [ng/mL]
Teprotumumab (antibody) | 121
B1 | 8.16

Same assay, conditions: record 2

Molecule | IC50, inhibition of IGF-1-induced proliferation of BaF3 cells overexpressing human IGF-1R [ng/mL]
B1 | 8.51

Molecular target: T1, recombinant human IGF-1R-his (human, UniProt P08069 31-932)
T1 construct: Recombinant his-tagged protein; also called hIGF-1R-his; hIGF1R-his; not shown: his tag
Experiment: ELISA, coated hIGF-1R-his
Details: not given
Description: Recombinant human IGF-1R-his antigens (2 μg/mL) were added to a 96-well plate for coating overnight at 4° C. The plate was washed three times with PBST, and then was blocked with PBST containing 5% skimmed milk powder at room temperature for 2 h. The blocking solution was discarded, the plate was washed three times with PBST, and then 30 μL of nanobody-Fc fusion proteins of different concentrations were added and incubated at room temperature for 1 h. The plate was washed 3 times with PBST, horseradish peroxidase-labeled anti-human Fc antibodies (abcam, ab97225) were added at 30 μL/well and incubated at room temperature for 1 h, and the plate was washed 3 times with PBST. TMB substrate solution was added at 30 μL/well for color development in the dark for 5-30 min, 30 μL of 2 M H₂SO₄ was added to terminate the reaction, and the OD₄₅₀ was read using a microplate reader. A curve was fit and the EC₅₀ value was calculated using Graphpad Prism software.

T1 sequence (P08069 31-932 limits assumed): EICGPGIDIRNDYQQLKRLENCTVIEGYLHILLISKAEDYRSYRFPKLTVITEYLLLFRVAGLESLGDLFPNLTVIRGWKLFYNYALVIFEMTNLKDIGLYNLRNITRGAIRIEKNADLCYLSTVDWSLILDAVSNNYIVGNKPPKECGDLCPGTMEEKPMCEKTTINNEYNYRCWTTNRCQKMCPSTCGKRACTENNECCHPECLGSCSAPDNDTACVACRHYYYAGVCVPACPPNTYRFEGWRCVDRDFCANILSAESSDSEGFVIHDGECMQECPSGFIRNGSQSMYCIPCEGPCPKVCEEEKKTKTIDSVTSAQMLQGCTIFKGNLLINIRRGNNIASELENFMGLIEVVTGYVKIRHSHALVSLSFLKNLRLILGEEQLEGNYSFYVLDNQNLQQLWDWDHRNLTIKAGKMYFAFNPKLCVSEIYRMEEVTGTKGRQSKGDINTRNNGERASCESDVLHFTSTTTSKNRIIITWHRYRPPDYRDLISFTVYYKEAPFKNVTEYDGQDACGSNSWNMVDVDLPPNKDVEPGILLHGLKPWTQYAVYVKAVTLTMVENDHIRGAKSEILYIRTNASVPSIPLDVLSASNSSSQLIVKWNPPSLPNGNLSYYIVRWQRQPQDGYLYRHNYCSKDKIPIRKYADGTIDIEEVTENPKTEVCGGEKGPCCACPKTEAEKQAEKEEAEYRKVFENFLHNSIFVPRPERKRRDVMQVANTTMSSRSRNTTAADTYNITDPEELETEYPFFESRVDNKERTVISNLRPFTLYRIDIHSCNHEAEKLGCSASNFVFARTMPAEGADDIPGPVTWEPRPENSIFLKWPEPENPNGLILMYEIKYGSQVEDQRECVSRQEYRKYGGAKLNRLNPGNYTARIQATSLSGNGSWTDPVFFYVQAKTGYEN

Molecule | EC50 [ng/mL]
B2 | 36.9
B3 | 92.9
B4 | 65.2
B5 | 82.8
B6 | 92.5

Molecular target: T1, recombinant human IGF-1R-his
Experiment: ELISA, coated hIGF-1R-his
Details: not given
Remark: another data set of the same source
Description: The binding activity of the nanobody-Fc fusion proteins obtained after two rounds of mutant construction with the antigen proteins (recombinant human IGF-1R-His) was detected by an ELISA method: 2 μg/mL recombinant human IGF1R-His antigen proteins were added to a 96-well ELISA plate, at 30 μL/well, for coating overnight at 4° C. The plate was washed three times with PBST. PBS containing 5% skim milk powder was added for blocking at room temperature for 2 h. The plate was washed three times with PBST. The nanobody-Fc fusion proteins were serially diluted 3-fold, and the nanobody-Fc fusion proteins of different concentrations were added to each well at 30 μL/well and incubated at room temperature for 1 h. The plate was washed three times with PBST, and horseradish peroxidase-labeled anti-human Fc antibodies were added at 30 μL/well and incubated at room temperature for 50 min. The plate was washed three times with PBST. TMB substrate solution was added at 30 μL/well for color development in the dark for 1-5 min, 30 μL of 2 M hydrochloric acid was added to terminate the reaction, and the OD₄₅₀ was read using a microplate reader. Curve fitting was conducted and the EC₅₀ value was calculated using Graphpad Prism software.

Molecule | EC50
B7 | 0.33 nM
B8 | 1.22 ng/mL
B9 | 1.23 ng/mL
B10 | 0.21 nM
B11 | 2.4 ng/mL
B12 | 2.25 ng/mL
B13 | 1.7 ng/mL
B14 | 1.84 ng/mL
B15 | 3.28 ng/mL
B16 | 5.36 ng/mL
B17 | 0.475 nM
B18 | 3.79 ng/mL
B19 | 1.43 ng/mL
B20 | 0.175 nM
B21 | 3.64 ng/mL
B1 | 0.052 nM
B22 | 2.33 ng/mL
B23 | 3.92 ng/mL
B24 | 4.05 ng/mL
B25 | 2.15 ng/mL
B26 | 1.06 ng/mL
B27 | 3.33 ng/mL
B28 | 1.47 ng/mL
B29 | 6.24 ng/mL
B30 | 0.299 nM
B31 | 0.183 nM
B32 | 0.215 nM

Molecular target: T1, recombinant human IGF-1R-his
Experiment: SPR (BIAcore), hIGF-1R-his on CM5 chip, Test 1
Details: not given
Description: The affinity of the nanobody fusion proteins to recombinant human IGF-1R was detected using a BIAcore instrument. […] The flow rate was set to 10 μL/min. The chip activation time of a mixture of EDC and NHS was the default value of 420 s. The recombinant human IGF-1R-his was coupled to 800 RU on a CM5 chip under the preset coupling mode, and unbound activated groups were blocked with ethanolamine. Two-fold serially diluted nanobody-Fc fusion proteins (five concentrations of each fusion protein were detected) were injected sequentially at a flow rate of 50 μL/min at 25° C., with an association time of 120 s and a dissociation time of 600 s. A curve was fit with a 1:1 Langmuir binding model using the BIAcore T200 analysis software to determine kinetic constants such as the association rate constant, the dissociation rate constant, and the association dissociation constant.

Molecule | Kd [nM] | koff [s⁻¹] | kon [M⁻¹ s⁻¹]
B2 | 31.7 | 0.00211 | 66800
B8 | 1.85 | 0.00207 | 1.12e+06
B13 | 1.15 | 0.00123 | 1.07e+06
B14 | 0.101 | 0.000465 | 4.62e+06
B1 | 0.0862 | 0.000274 | 3.18e+06

Molecular target: T1, recombinant human IGF-1R-his
Experiment: competition ELISA, coated hIGF-1R-his, competitor IGF-2 (N-Avi & N-Fc)
Details: not given
Description: (§1) Recombinant human IGF-1R-his antigens (5 μg/mL) were added to a 96-well plate for coating overnight at 4° C. The plate was washed 4 times with 1×TBST, and then was blocked with 2% BSA at 37° C. for 1.5 h. The plate was washed four times with 1×TBST. A volume of 50 μL of biotinylated IGF-1-Fc (2.5 μg/mL) or IGF-2 (N-Avi & N-Fc 4 μg/mL), and 50 μL of nanobody-Fc fusion proteins of different concentrations (with a starting concentration of 10 μg/mL, 2-fold serially diluted) were added to the 96-well plate and incubated at 37° C. for 1 h. The plate was washed 4 times with 1×TBST, horseradish peroxidase-labeled Streptavidin (Thermo, 21126) was added and incubated at 37° C. for 1 h, and the plate was washed 4 times with 1×TBST. TMB substrate solution was added at 200 μL/well for color development in the dark for 20 min, 50 μL of 1 M H₂SO₄ was added to terminate the reaction, and the OD₄₅₀ was read using a microplate reader. A curve was fit and the IC₅₀ value was calculated using Graphpad Prism software.

Molecule | IC50 [ng/mL]
B1 | 237
B5 | 152

Molecular target: T1, recombinant human IGF-1R-his
Experiment: competition ELISA, coated hIGF-1R-his, competitor biotinylated IGF-1-Fc
Details: not given
Description: as §1

Molecule | IC50 [ng/mL]
B1 | 269
B5 | 227
